According to publication PMC7969020:
pKd: −log10 of the molar value.

test system: TDG (thymine DNA glycosylase), full length (Homo sapiens); assay: EMSA; conditions: EMSA: 5 nM 32P DNA or mononucleosome, TDG 0-1 uM, buffer NB (composition not in material) + 0.2 mM MgCl2, 5% glycerol, 37 C 20 min; 5% native PAGE at 4 C

Q: 0-NCP-0 mononucleosome was tested. Which pKd did it give?
A: 6.73

Q: How did the pKd turn out when 0-NCP-30 mononucleosome was run?
A: 7.23

Q: 30-NCP-30 mononucleosome was tested. Which pKd did it give?
A: 7.21

Q: How did the pKd turn out when 601 DNA (naked, 147 bp) was run?
A: 7.42
